Article PMC12802285, “PPE64 is a mycomembrane channel protein that functions in heme iron uptake and moonlights in biofilm formation in Mycobacterium tuberculosis” (mBio, 2025)
Where “and” joins values, the source holds several entries; their conditions need not be identical. Equal values may be shown once.

Biological target: the molecule itself
Assay: native gel or EMSA

B1: PPE64 mycomembrane channel protein (recombinant, detergent-refolded) (natural protein)
chain: MAHFSVLPPEINSLRMYLGAGSAPMLQAAAAWDGLAAELGTAASSFSSVTTGLTGQAWQGPASAAMAAAAAPYAGFLTTASAQAQLAAGQAKAVASVFEAAKAAIVPPAAVAANREAFLALIRSNWLGLNAPWIAAVESLYEEYWAADVAAMTGYHAGASQAAAQLPLPAGLQQFLNTLPNLGIGNQGNANLGGGNTGSGNIGNGNKGSSNLGGGNIGNNNIGSGNRGSDNFGAGNVGTGNIGFGNQGPIDVNLLATPGQNNVGLGNIGNNNMGFGNTGDANTGGGNTGNGNIGGGNTGNNNFGFGNTGNNNIGIGLTGNNQMGINLAGLLNSGSGNIGIGNSGTNNIGLFNSGSGNIGVFNTGANTLVPGDLNNLGVGNSGNANIGFGNAGVLNTGFGNASILNTGLGNAGELNTGFGNAGFVNTGFDNSGNVNTGNGNSGNINTGSWNAGNVNTGFGIITDSGLTNSGFGNTGTDVSGFFNTPTGPLAVDVSGFFNTASGGTVINGQTSGIGNIGVPGTLFGSVRSGLNTGLFNMGTAISGLFNLRQLLG
notes: also called PPE64_(OPOE); PPE64DDM
  stoichiometry N: 9 and 3
